The target in assay [1] is T1, Formyl peptide receptor like 1 (FPRL1) (human, UniProt P25090 1-351).
T1 sequence (looked up): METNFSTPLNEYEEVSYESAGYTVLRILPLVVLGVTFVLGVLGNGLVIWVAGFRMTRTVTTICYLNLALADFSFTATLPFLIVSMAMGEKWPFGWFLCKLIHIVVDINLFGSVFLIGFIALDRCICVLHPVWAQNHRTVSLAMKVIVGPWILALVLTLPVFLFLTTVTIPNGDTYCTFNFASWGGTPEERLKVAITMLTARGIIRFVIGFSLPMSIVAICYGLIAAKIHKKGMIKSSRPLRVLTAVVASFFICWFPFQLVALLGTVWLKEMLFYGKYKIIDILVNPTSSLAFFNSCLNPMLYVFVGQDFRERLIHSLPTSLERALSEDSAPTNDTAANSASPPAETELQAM
Put plainly: cell-based or functional assay.

Assay [2] concerns the target T1, Formyl peptide receptor like 1 (FPRL1). Put plainly: displacement of 125I-WKYMVm (50 pM) from FPRL1-expressing RBL-2H3 cells.
Protocol: Ligand binding analysis was performed as previously described (24). Briefly, FPR-expressing RBL-2H3 cells were seeded at 1×10⁵ cells per well into a 24 well plate and cultured overnight. […] The samples were then washed 5 times with ice-cold binding buffer, and 200 μl of lysis buffer (20 mM Tris, pH 7.5, 1% Triton X-100) was added to each well. After 20 min at room temperature, the lysates were collected and counted using a γ-ray counter (24).
The target is the same in assay [3]. The experiment in a line: cell-based or functional assay. The source holds these as a separate data set.

Where no end group is shown, it is not given here. [ ]: non-standard residue; d: D form. Bounds are passed on as bounds.

This note sets out measurements from US20080274978A1 (POSTECH FOUNDATION, published 2008).

B1: WWWW (peptide)
peptide: WWWW
Turning to B1, the “Ca^2+ (FPRL1) IC50” value in assay [1] amounted to 860 nM.

B2: WWWWWR (peptide)
peptide: WWWWWR
Regarding B2, the “Ca^2+ (FPRL1) IC50” value in assay [1] worked out at 220 nM.

B3: WRWW (peptide)
peptide: WRWW
Consider B3, for which the “Ca^2+ (FPRL1) IC50” value in assay [1] is more than 10000 nM.

B4: LRWWWW (peptide)
peptide: LRWWWW
In the case of B4, the “Ca^2+ (FPRL1) IC50” value in assay [1] amounted to 1100 nM.

B5: RWWM (peptide)
peptide: RWWM
Take B5: the “Ca^2+ (FPRL1) IC50” value in assay [1] came to 650 nM.

B6: WRRWWW (peptide)
peptide: WRRWWW
As for B6, the “Ca^2+ (FPRL1) IC50” value in assay [1] is more than 10000 nM.

B7: WWWM (peptide)
peptide: WWWM
Take B7: in assay [1], the “Ca^2+ (FPRL1) IC50” value was 5900 nM.

B8: wWRWWW (peptide)
peptide: [dW]WRWWW
Regarding B8, the “Ca^2+ (FPRL1) IC50” value in assay [1] was 110 nM.

B9: RWWW (peptide)
peptide: RWWW
As for B9, the “Ca^2+ (FPRL1) IC50” value in assay [1] turned out to be 600 nM.

B10: Arg-Arg-Trp-Trp-Trp-Trp-CONH2 (RRWWWW, RRW^4) (peptide)
peptide: RRWWWW-NH2
As a reminder, the IC50 is the point on the concentration scale where inhibition reaches its midpoint. With B10, the IC50 in assay [2] was 2400 nM.

B11: Asp-Arg-Trp-Trp-Trp-Trp-CONH2 (DRWWWW, DRW^4) (peptide)
peptide: DRWWWW-NH2
B11 displayed an IC50 in assay [2] of 3400 nM.

B12: Trp-Arg-Trp-Trp-Trp-Trp-CONH2 (WRWWWW, WRW^4) (peptide)
peptide: WRWWWW-NH2
On to B12, for which the “Ca^2+ (FPRL1) IC50” value in assay [1] was found to be 1000 nM. The same molecule registered an IC50 in assay [2] of 230 nM.

B13: Arg-His-Trp-Trp-Trp-Trp-CONH2 (RHWWWW, RHW^4) (peptide)
peptide: RHWWWW-NH2
With B13, the IC50 in assay [2] amounted to 3200 nM.

B14: WWRWWM (peptide)
peptide: WWRWWM
As for B14, the “Ca^2+ (FPRL1) IC50” value in assay [1] came out at 83 nM.

B15: WRW (peptide)
peptide: WRW
For B15, the “Ca^2+ (FPRL1) IC50” value in assay [1] was more than 10000 nM.

B16: RWWw (peptide)
peptide: RWW[dW]
With B16, the “Ca^2+ (FPRL1) IC50” value in assay [1] was more than 10000 nM.

B17: WWWRWW (peptide)
peptide: WWWRWW
For B17, the “Ca^2+ (FPRL1) IC50” value in assay [1] came out at 470 nM.

B18: WWWw (peptide)
peptide: WWW[dW]
B18: the “Ca^2+ (FPRL1) IC50” value in assay [1] was more than 10000 nM.

B19: WWRWWW (peptide)
peptide: WWRWWW
Turning to B19, in assay [1], the “Ca^2+ (FPRL1) IC50” value stood at 58 nM.

B20: WWWWWw (peptide)
peptide: WWWWW[dW]
As to B20, the “Ca^2+ (FPRL1) IC50” value in assay [1] was more than 10000 nM.

B21: WWWWRW (peptide)
peptide: WWWWRW
For the molecule B21, in assay [1], the “Ca^2+ (FPRL1) IC50” value is 2700 nM.

B22: LWWWWW (peptide)
peptide: LWWWWW
With B22, the “Ca^2+ (FPRL1) IC50” value in assay [1] came out at 500 nM.

B23: wWRWWM (peptide)
peptide: [dW]WRWWM
modifications: not fully specified; printed as wWRWWM
On to B23, for which the “antagonistic activity on intracellular calcium concentration increase, relative to WRWWWW (SEQ ID NO:4)” value in assay [3] is approximately 100 times. The “Ca^2+ (FPRL1) IC50” value in assay [1] was 8.2 nM.

B24: WWWWMR (peptide)
peptide: WWWWMR
As to B24, in assay [1], the “Ca^2+ (FPRL1) IC50” value came to 5700 nM.

B25: WWWWWM (peptide)
peptide: WWWWWM
In the case of B25, in assay [1], the “Ca^2+ (FPRL1) IC50” value is 130 nM.

B26: WWWWWW (peptide)
peptide: WWWWWW
For B26, the “Ca^2+ (FPRL1) IC50” value in assay [1] is more than 10000 nM.
